# From IntAct's records for PubMed 29549094
# B1: Syntaxin-17 (Homo sapiens), P56962 (parent)
# chain: MSEDEEKVKLRRLEPAIQKFIKIVIPTDLERLRKHQINIEKYQRCRIWDKLHEEHINAGRTVQQLRSNIREIEKLCLKVRKDDLVLLKRMIDPVKEEASAATAEFLQLHLESVEELKKQFNDEETLLQPPLTRSMTVGGAFHTTEAEASSQSLTQIYALPEIPQDQNAAESWETLEADLIELSQLVTDFSLLVNSQQEKIDSIADHVNSAAVNVEEGTKNLGKAAKYKLAALPVAGALIGGMVGGPIGLLAGFKVAGIAAALGGGVLGFTGGKLIQRKKQKMMEKLTSSCPDLPSQTDKKCS
# B2: Syntaxin-17 (Homo sapiens), P56962 (parent)
# chain: B1 chain
# partner: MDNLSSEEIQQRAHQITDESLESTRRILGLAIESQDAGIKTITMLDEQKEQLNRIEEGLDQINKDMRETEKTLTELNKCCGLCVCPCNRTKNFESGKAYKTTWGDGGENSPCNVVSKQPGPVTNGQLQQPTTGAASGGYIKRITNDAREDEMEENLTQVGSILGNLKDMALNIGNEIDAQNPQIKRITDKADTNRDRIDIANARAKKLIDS
# Variants of: B1
# Conditions: with acsl3_human ACSL3, O95573
# Chain of acsl3_human ACSL3, O95573 (O95573 whole entry): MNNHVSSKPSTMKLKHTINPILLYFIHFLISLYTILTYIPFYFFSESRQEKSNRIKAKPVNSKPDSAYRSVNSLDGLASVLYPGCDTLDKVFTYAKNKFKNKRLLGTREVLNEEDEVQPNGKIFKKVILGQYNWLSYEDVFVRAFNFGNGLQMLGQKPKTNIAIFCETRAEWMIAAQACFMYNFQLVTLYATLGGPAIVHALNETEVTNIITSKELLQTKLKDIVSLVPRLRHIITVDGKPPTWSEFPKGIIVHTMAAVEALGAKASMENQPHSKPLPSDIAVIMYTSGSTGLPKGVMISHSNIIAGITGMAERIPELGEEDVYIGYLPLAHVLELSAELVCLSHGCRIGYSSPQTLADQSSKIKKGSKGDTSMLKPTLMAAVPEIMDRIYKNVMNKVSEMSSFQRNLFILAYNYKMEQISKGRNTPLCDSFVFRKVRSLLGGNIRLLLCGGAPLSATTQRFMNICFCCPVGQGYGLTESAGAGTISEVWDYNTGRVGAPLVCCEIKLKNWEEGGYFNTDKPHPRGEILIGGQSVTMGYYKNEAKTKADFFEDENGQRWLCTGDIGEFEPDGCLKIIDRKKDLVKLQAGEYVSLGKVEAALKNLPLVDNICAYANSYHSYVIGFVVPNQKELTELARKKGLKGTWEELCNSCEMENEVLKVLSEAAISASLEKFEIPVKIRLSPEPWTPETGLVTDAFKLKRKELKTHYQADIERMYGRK
row,effect of a mutation on the interaction,Variant
1,with no effect,MSEDEEKVKLRRLEPAIQKFIKIVIPTDLERLRKHQINIEKYQRCRIWDKLHEEHINAGRTVQQLRSNIREIEKLCLKVRKDDLVLLKRMIDPVKEEASAATAEFLQLHLESVEELKKQFNDEETLLQPPLTRSMTVGGAFHTTEAEASSQSLTQIYALPEIPQDQNAAESWETLEADLIELSQLVTDFSLLVNSQQEKIDSIADHVNSAAVNVEEGTKNLGKAAKYKLAALPVAGALIGGMVGGPIGLLAGFCVAGIAAALGGGVLGFTGGKLIQRKKQKMMEKLTSSCPDLPSQTDKKCS [K254C]

# Variants of: B2
# Conditions: with snp23_human SNAP23, O00161
row,effect of a mutation on the interaction,Variant
1,decreasing interaction strength,MSEDEEKVKLRRLEPAIQKFIKIVIPTDLERLRKHQINIEKYQRCRIWDKLHEEHINAGRTVQQLRSNIREIEKLCLKVRKDDLVLLKRMIDPVKEEASAATAEFLQLHLESVEELKKQFNDEETLLQPPLTRSMTVGGAFHTTEAEASSQSLTQIYALPEIPQDQNAAESWETLEADLIELSQLVTDFSLLVNSQQEKIDSIADHVNSAAVNVEEGTKNLGKAAKYKLAALPVAGALIGGMVGGPIGLLAGFCVAGIAAALGGGVLGFTGGKLIQRKKQKMMEKLTSSCPDLPSQTDKKCS [K254C]
